Target: RmlT, wall teichoic acid rhamnosyltransferase of Listeria monocytogenes EGDe (Listeria monocytogenes EGDe)
Assay: SEC

Question: For “RmlT, wall teichoic acid rhamnosyltransferase of Listeria monocytogenes EGDe (enzyme)”, which stoichiometry N is on record?
Answer: Its stoichiometry N is 2.

Source: paper doi:10.1101/2024.01.23.574818
